Here are results for six substances from publication PMC5503940.

Assay [1] deals with αβ-tubulin heterodimer.
For assay [2], the target named is αβ-tubulin heterodimer. As to the kind of experiment: SEC-MALS; KW803 (Shodex) column, 20 mM Pipes pH 6.8, 10 μM AMPPNP; 30 μl at about 3 mg/ml tubulin–Kif2C–DARPin complexes, 0.5 ml/min. (In general: Size exclusion chromatography separates by hydrodynamic size, large species first.)
For assay [3], the target named is αβ-tubulin heterodimer. The source holds these as a separate data set.

Consider “Kif2C-(sN+M) (short neck+motor construct of human Kif2C/MCAK) (from UniProt Q99661 216-598) (domain or fragment)”, for which the microtubule-stimulated ATPase, K mMT; tubulin as Taxotere-stabilized microtubules in assay [1] came to 1.1 µM.

As to “Kif2C-(sN+M) R420S (from UniProt Q99661 216-598) (domain or fragment)”, in assay [1], the microtubule depolymerase activity (turbidity, percent of wild-type Kif2C-(sN+M)) is 5.7% and the microtubule-stimulated ATPase, k cat; tubulin as Taxotere-stabilized microtubules was 0.33 s⁻¹.

The substance “Kif2C-(sN+M) R510A (from UniProt Q99661 216-598) (domain or fragment)” returned a microtubule-stimulated ATPase, K mMT; tubulin as Taxotere-stabilized microtubules in assay [1] of 17 µM.

In assay [1], “Kif2C-(sN+M) R540A (from UniProt Q99661 216-598) (domain or fragment)” came in with a microtubule depolymerase activity (turbidity, percent of wild-type Kif2C-(sN+M)) of 5.5%.

As to “Kif2C-(sN+M)-(G4S)3-DARPin (Kif2C-(sN+M) linked to the D1 DARPin by a (G4S)3 peptide) (from UniProt Q99661 216-598)”, the stoichiometry N (tubulin:construct) in assay [2] is 1.

As for “Kif2C-(sN+M)-(G4S)4-GGS-DARPin (Kif2C-(sN+M) fused to the A-C2 DARPin) (from UniProt Q99661 216-598)”, in assay [3], the microtubule-stimulated ATPase, apparent K m (K mMT); tubulin as Taxotere-stabilized microtubules came out at 20 µM; the tubulin-stimulated ATPase, apparent Michaelis–Menten constant was determined as 0.5 µM; the tubulin-stimulated ATPase, k cat turned out to be 0.1 s⁻¹.
